Source: EP4813394A2 (Albert-Ludwigs-Universität Freiburg, dated 2026)

Target: T1, TRMT112 (KMT9beta) (Homo sapiens, UniProt Q9UI30 1-125)
T1 construct: TRMT112 is untagged when co-expressed with His-C21orf127 and His-tagged when expressed alone (His-TRMT112); also called His-TRMT112
T1 sequence: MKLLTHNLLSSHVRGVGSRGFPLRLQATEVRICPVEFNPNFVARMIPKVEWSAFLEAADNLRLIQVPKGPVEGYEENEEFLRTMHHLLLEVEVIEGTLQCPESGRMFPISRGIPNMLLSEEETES
Assay: gel filtration chromatography (Superose 6 10/300 GL)

binding result: binds
B1: C21orf127(N122A) (enzyme)
chain: MAGENFATPFHGHVGRGAFSDVYEPAEDTFLLLDALEAAAAELAGVEICLEVGSGSGVVSAFLASMIGPQALYMCTDINPEAAACTLETARCNKVHIQPVITDLVKGLLPRLTEKVDLLVFAPPYVVTPPQEVGSHGIEAAWAGGRNGREVMDRFFPLVPDLLSPRGLFYLVTIKENNPEEILKIMKTKGLQGTTALSRQAGQETLSVLKFTKS
notes: Co-expressed with TRMT112 as His-C21orf127(N122A)/TRMT112; also called KMT9alpha(N122A); His-C21orf127(N122A); not shown: N-terminal His tag from pDEST17 or pET-Duet1
